Data from publication PMC3682478.

Target: E. coli RNA polymerase in elongating complexes and paused transcription complexes (transcription assays) (E. coli) (UniProt P0A7Z4)
Sequence (P0A7Z4 whole entry, chain 1 of 3): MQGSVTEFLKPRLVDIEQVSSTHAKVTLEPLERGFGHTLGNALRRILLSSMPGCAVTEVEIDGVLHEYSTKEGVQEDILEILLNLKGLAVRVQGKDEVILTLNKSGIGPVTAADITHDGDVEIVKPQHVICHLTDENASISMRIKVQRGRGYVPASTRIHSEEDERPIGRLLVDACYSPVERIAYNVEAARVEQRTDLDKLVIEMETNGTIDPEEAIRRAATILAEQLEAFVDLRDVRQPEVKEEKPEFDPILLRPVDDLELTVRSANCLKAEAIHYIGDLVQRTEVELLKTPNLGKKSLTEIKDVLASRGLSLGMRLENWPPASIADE
Sequence (P0A8V2 whole entry, chain 2 of 3, further chain): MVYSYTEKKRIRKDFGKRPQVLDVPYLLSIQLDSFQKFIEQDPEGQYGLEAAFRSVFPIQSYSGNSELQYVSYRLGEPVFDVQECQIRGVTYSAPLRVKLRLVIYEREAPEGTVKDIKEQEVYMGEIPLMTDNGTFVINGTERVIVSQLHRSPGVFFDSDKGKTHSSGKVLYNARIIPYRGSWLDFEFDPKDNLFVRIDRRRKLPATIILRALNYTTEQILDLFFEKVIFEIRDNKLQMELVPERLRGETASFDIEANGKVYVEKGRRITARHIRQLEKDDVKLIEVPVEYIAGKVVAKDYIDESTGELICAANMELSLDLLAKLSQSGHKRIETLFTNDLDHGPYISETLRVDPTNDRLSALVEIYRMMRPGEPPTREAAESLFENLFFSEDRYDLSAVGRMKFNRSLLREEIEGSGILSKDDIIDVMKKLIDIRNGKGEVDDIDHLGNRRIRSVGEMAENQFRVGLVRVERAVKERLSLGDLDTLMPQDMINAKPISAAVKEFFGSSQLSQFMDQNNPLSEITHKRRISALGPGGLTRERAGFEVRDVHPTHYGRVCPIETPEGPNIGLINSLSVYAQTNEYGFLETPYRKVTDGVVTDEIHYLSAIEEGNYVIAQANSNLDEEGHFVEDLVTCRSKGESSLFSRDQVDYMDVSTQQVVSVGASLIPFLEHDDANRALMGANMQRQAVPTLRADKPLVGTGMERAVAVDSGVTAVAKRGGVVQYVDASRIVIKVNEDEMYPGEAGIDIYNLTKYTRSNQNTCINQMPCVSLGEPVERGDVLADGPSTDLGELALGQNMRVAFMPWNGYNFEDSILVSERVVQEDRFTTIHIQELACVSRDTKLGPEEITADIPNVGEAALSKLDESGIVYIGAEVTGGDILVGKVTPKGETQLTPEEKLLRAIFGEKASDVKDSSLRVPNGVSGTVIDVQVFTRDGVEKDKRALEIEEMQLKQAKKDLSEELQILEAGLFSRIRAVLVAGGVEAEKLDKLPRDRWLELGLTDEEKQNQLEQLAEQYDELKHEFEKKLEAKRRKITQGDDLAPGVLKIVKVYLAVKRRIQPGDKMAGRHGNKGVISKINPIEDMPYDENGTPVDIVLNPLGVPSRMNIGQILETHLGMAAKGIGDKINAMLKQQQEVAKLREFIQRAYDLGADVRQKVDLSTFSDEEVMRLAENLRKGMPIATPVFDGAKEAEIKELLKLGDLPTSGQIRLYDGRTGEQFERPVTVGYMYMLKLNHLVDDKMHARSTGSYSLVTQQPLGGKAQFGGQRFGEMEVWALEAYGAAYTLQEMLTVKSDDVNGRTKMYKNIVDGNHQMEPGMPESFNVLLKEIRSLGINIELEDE
Sequence (P0A8T7 whole entry, chain 3 of 3, further chain): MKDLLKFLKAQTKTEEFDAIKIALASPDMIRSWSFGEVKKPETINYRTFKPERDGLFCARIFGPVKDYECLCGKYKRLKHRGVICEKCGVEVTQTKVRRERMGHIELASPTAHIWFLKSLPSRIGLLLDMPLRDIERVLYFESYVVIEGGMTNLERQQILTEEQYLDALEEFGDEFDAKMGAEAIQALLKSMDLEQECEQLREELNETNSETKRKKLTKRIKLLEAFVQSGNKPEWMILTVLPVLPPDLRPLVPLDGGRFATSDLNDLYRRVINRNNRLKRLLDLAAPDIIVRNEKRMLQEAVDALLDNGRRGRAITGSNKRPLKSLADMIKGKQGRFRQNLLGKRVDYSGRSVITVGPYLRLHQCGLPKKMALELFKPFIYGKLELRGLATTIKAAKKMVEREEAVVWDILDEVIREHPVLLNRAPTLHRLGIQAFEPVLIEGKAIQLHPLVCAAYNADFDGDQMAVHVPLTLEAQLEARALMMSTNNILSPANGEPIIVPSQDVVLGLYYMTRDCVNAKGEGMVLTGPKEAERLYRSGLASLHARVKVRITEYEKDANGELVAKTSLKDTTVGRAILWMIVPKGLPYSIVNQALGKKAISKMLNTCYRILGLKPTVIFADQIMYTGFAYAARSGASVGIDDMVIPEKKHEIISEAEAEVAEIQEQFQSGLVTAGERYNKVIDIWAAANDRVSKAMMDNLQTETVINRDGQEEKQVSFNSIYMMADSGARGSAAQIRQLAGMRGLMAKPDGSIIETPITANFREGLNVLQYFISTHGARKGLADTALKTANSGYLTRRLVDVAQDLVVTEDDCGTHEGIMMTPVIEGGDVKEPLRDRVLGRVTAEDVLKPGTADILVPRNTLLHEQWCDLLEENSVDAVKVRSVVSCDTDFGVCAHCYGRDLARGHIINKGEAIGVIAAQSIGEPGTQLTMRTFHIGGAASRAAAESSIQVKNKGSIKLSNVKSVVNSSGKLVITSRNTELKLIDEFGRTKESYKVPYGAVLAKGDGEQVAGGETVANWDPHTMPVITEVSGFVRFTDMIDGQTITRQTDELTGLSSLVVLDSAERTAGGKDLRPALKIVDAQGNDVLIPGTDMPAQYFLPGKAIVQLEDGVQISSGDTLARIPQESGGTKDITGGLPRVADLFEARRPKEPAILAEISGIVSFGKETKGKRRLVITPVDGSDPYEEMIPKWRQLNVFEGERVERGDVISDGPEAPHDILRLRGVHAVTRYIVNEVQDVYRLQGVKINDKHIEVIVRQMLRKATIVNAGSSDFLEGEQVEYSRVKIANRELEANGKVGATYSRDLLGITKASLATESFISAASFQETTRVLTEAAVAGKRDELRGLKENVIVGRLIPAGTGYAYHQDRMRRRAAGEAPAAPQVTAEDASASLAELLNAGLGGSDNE

- maximal pause stimulation k0/kNusA, his pause, scaffold: 1.27
Substance: NusA NTD with N-terminal deletion, Δ(3-18) NTD (from UniProt P0AFF6 1-137) (domain or fragment)
